This is an account of results in PMC9638941, “Molecular basis of dual anti-CRISPR and auto-regulatory functions of AcrIF24” (Nucleic Acids Research, 2022).

Numbering of substitutions follows the chain as printed.

One data set has as its target T1, AcrIF24 Y128K/Y217W (Pseudomonas aeruginosa prophage, UniProt A0AA82WNY5 1-228, Y128K;Y217W).
T1 sequence: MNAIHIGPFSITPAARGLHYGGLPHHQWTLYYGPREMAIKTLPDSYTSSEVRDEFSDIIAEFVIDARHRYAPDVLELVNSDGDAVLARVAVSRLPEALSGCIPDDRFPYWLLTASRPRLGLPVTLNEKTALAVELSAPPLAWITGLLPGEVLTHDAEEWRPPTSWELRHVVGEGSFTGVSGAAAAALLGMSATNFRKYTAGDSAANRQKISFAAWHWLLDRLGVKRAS
As to the kind of experiment: EMSA; EMSA-P: 10 mM HEPES pH 7.5, 1 mM MgCl2, 20 mM KCl, 1 mM TCEP, 5% glycerol, 30 min on ice; 10% native 0.5x TBE gel, SYBR Gold; Cascade EMSA buffer not in material. Particulars: protein: recombinant; label: none (SYBR Gold stain); blunt.

Data set [1] addresses T2, AcrIF24 K197Y (Pseudomonas aeruginosa prophage, UniProt A0AA82WNY5 1-228, K197Y).
T2 sequence: T1 sequence with K128Y, K197Y, W217Y
As to the kind of experiment: EMSA; native PAGE; EMSA-P: 10 mM HEPES pH 7.5, 1 mM MgCl2, 20 mM KCl, 1 mM TCEP, 5% glycerol, 30 min on ice; 10% native 0.5x TBE gel, SYBR Gold; Cascade EMSA buffer not in material. Particulars: protein: recombinant; chain copies: 2; label: none (SYBR Gold stain); blunt.

In data set [2] the target is T3, AcrIF24 S45Y (Pseudomonas aeruginosa prophage, UniProt A0AA82WNY5 1-228, S45Y).
T3 sequence: T1 sequence with S45Y, K128Y, W217Y
The data set is described as above. Particulars: protein: recombinant; chain copies: 2; label: none (SYBR Gold stain); blunt.

Data set [3] addresses T4, AcrIF24 R207W (Pseudomonas aeruginosa prophage, UniProt A0AA82WNY5 1-228, R207W).
T4 sequence: T1 sequence with K128Y, R207W, W217Y
Described as above. Particulars: protein: recombinant; chain copies: 2; label: none (SYBR Gold stain); blunt.

Data set [4] deals with T2, AcrIF24 K197Y. As to the kind of experiment: EMSA; 1 uM protein; EMSA-P: 10 mM HEPES pH 7.5, 1 mM MgCl2, 20 mM KCl, 1 mM TCEP, 5% glycerol, 30 min on ice; 10% native 0.5x TBE gel, SYBR Gold; Cascade EMSA buffer not in material. Particulars: protein: recombinant; chain copies: 2; label: none (SYBR Gold stain); blunt.
The target in data set [5] is T3, AcrIF24 S45Y. Described as above. To be noted: protein: recombinant; chain copies: 2; label: none (SYBR Gold stain); blunt.
The next data set addresses T5, AcrIF24 R16W (Pseudomonas aeruginosa prophage, UniProt A0AA82WNY5 1-228, R16W).
T5 sequence: T1 sequence with R16W, K128Y, W217Y
The description is as above. To be noted: protein: recombinant; chain copies: 2; label: none (SYBR Gold stain); blunt.

In data set [6] the target is T4, AcrIF24 R207W. Described as above. Particulars: protein: recombinant; chain copies: 2; label: none (SYBR Gold stain); blunt.

B1: IR-L (dsDNA)
DNA 1: CAGAATATCATTGCATAGCTCGATTCGAGCTAATATAGTAATACCAACAGCGCGGCACACCGCCAGCACTGAACCT
DNA 2: AGGTTCAGTGCTGGCGGTGTGCCGCGCTGTTGGTATTACTATATTAGCTCGAATCGAGCTATGCAATGATATTCTG
Regarding B1, the binding result with AcrIF24 Y128K/Y217W is “no binding”; in the data set with AcrIF24 K197Y [1], “no binding”; with AcrIF24 S45Y [2], “binds”; with AcrIF24 R207W [3] it was “no binding”.

B2: IR-S (dsDNA)
DNA 1: TAGCTCGATTCGAGCTA
DNA 2: TAGCTCGAATCGAGCTA
As for B2, the binding result was “no binding” in the data set with AcrIF24 K197Y [4], “binds” with AcrIF24 S45Y [5], “binds” in the data set with AcrIF24 R16W and “no binding” with AcrIF24 R207W [6].
